The record followed here is paper PMC9400960.

The data set deals with PABP1-190 (RRM1/2) (human, UniProt P11940 1-190). The data set can be described thus: MST competition.
Sequence of PABP1-190 (RRM1/2) (P11940 1-190): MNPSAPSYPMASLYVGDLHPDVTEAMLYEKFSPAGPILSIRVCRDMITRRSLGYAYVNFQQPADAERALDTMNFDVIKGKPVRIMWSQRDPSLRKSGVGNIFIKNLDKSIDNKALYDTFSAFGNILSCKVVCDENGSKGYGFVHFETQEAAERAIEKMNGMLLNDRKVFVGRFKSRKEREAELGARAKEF

Regarding AAAAAAAAAAAA (XNA, 2'-F-A in middle part; positions in Figure 2/Table 1) [AF2], the binding signal was ~4 fold higher Kd app than A12. Under AAAAAAAAAAAA (XNA, 2'-O-methyl-A in middle part; positions in Figure 2/Table 1) [Am2] stands ~7 fold higher Kd app than A12. Under AAAAAAAAAAAA (ssRNA, N6-methyl-A in middle part; positions in Figure 2/Table 1) [m6A2] stands ~12 fold higher Kd app than A12.
